“Also recorded” adds a separate entry of the source.
Assays:
GST-RANK314-355 [1] = assay: AlphaScreen PPI, TRAF6 mutants binding to RANK; set-up: species or system human; settings: for effect of TRAF6 mutation on binding to RANK (in words): AlphaScreen PPI; for TRAF6 binding to RANK (AlphaScreen), mean / TRAF6 binding to RANK (AlphaScreen): Figure 2c; for TRAF6 binding to RANK (AlphaScreen), mean: mean of n = 4
Procedure: Fig. 2 LMP1 binds to the receptor-interacting surface of TRAF6. a Mutations within the receptor-interacting surface of TRAF6 affect binding to LMP1. The TRAF6 mutants R392A, K469A, F471A, and Y473A were tested LMP1 in AlphaScreen PPI experiments with GST-LMP1_181-386. Data are mean values ± SD of three independent experiments. Statistics: one-way ANOVA. b TRAF6 R392A differentiates between CD40 and LMP1/RANK. AlphaScreen PPI experiments with GST-CD40_216-277. Data are mean values ± SD of three independent experiments. […] AlphaScreen PPI experiments with GST-RANK314-355. Data are mean values ± SD of four independent experiments. Statistics: one-way ANOVA. d TRAF6 mutants that fail to interact with LMP1 in PPI assays are also unable to bind cellular LMP1. HEK293 cells were co-transfected with HA-LMP1 and the indicated Flag-TRAF6 mutants. Flag-TRAF6 was immunoprecipitated (IP) via its Flag-tag and coprecipitated HA-LMP1 was detected on immunoblots by an α-HA antibody. Uncropped blots in Supplementary Fig. 6b. For statistical analysis LMP1 signals were digitalized and quantified (graph). Data are mean values ± SD of three independent experiments. […] TRAF6 recruitment is dependent on amino acids 371 − 386 of LMP1 (small panel). Confocal microscopy images show representative cells of three independent experiments. Quantitative data are mean values ± SD of ten randomly selected cells per transfection of one representative experiment (graph). Scale bars: 10 µm. Statistics: one-way ANOVA. p-values: *p ≤ 0.05, **p ≤ 0.01, ***p ≤ 0.001, ****p ≤ 0.0001. Source data and exact p-values in the Source Data file.
AlphaScreen experiments were performed in 96- or 384-well plates (Perkin Elmer, OptiPlate). In both assay formats, His-TRAF and GST-LMP1, GST-CD40, or GST-RANK proteins were incubated together in 40 µL of PBS (protein concentrations were calculated to the final reaction volume of 60 µL) supplemented with 0.5% BSA (Sigma, #A7030) and 0.1% Tween-20 (AppliChem, #A4974), for 1 h at room temperature (RT). If not indicated otherwise, standard protein concentrations were 300 nM for His-TRAF proteins and 100 nM for GST-LMP1 proteins. Ni-NTA-acceptor (Perkin Elmer, #6760619 C) and GST-acceptor (Perkin Elmer, # 6765300) beads were added each to a final concentration of 1–4 µg per mL in a final reaction volume of 60 µL and incubated for 1 h at RT in the dark. AlphaScreen PPI signals were measured in a CLARIOstar reader (BMG Labtech GmbH).

GST-RANK314-355 [2] = assay: AlphaScreen PPI, TRAF6 mutants binding to RANK; set-up: species or system human

Molecule	effect of TRAF6 mutation on binding to RANK (in words) (GST-RANK314-355 [1])	TRAF6 binding to RANK (AlphaScreen), mean (GST-RANK314-355 [1])	TRAF6 binding to RANK (AlphaScreen) (GST-RANK314-355 [1]; replicate 1)	TRAF6 binding to RANK (AlphaScreen) (GST-RANK314-355 [1]; replicate 2)	TRAF6 binding to RANK (AlphaScreen) (GST-RANK314-355 [1]; replicate 3)	TRAF6 binding to RANK (AlphaScreen) (GST-RANK314-355 [1]; replicate 4)	effect of TRAF6 mutation on binding to RANK (in words) (GST-RANK314-355 [2]; listed as TRAF6 R392A)	effect of TRAF6 mutation on binding to RANK (in words) (GST-RANK314-355 [2]; listed as Y471A)
R392A (protein, UniProt Q9Y4K3 1-522, looked up, variant R392A) TNF receptor-associated …: MSLLNCENSCGSSQSESDCCVAMASSCSAVTKDDSVGGTASTGNLSSSFMEEIQGYDVEFDPPLESKYECPICLMALREAVQTPCGHRFCKACIIKSIRDAGHKCPVDNEILLENQLFPDNFAKREILSLMVKCPNEGCLHKMELRHLEDHQAHCEFALMDCPQCQRPFQKFHINIHILKDCPRRQVSCDNCAASMAFEDKEIHDQNCPLANVICEYCNTILIREQMPNHYDLDCPTAPIPCTFSTFGCHEKMQRNHLARHLQENTQSHMRMLAQAVHSLSVIPDSGYISEVRNFQETIHQLEGRLVRQDHQIRELTAKMETQSMYVSELKRTIRTLEDKVAEIEAQQCNGIYIWKIGNFGMHLKCQEEEKPVVIHSPGFYTGKPGYKLCMALHLQLPTAQRCANYISLFVHTMQGEYDSHLPWPFQGTIRLTILDQSEAPVRQNHEEIMDAKPELLAFQRPTIPRNPKGFGYVTFMHLEALRQRTFIKDDTLLVRCEVSTRFDMGSLRREGFQPRSTDAGV	do not bind to RANK; also recorded: prevented the interaction of TRAF6 with LMP1 and RANK	0.1	0.1	0.1	0.1	0.1	do not interact	–
F471A (protein, UniProt Q9Y4K3 1-522, looked up, variant F471A) TNF receptor-associated …: MSLLNCENSCGSSQSESDCCVAMASSCSAVTKDDSVGGTASTGNLSSSFMEEIQGYDVEFDPPLESKYECPICLMALREAVQTPCGHRFCKACIIKSIRDAGHKCPVDNEILLENQLFPDNFAKREILSLMVKCPNEGCLHKMELRHLEDHQAHCEFALMDCPQCQRPFQKFHINIHILKDCPRRQVSCDNCAASMAFEDKEIHDQNCPLANVICEYCNTILIREQMPNHYDLDCPTAPIPCTFSTFGCHEKMQRNHLARHLQENTQSHMRMLAQAVHSLSVIPDSGYISEVRNFQETIHQLEGRLVRQDHQIRELTAKMETQSMYVSELKRTIRTLEDKVAEIEAQQCNGIYIWKIGNFGMHLKCQEEEKPVVIHSPGFYTGKPGYKLCMRLHLQLPTAQRCANYISLFVHTMQGEYDSHLPWPFQGTIRLTILDQSEAPVRQNHEEIMDAKPELLAFQRPTIPRNPKGAGYVTFMHLEALRQRTFIKDDTLLVRCEVSTRFDMGSLRREGFQPRSTDAGV	do not interact	0.725	0.2	0.4	0.2	2.1	–	abolished the interaction of TRAF6 with RANK; also recorded: do not bind to RANK

— paper PMC10776578, “Epstein-Barr virus-driven B cell lymphoma mediated by a direct LMP1-TRAF6 complex” (Nature Communications, 2024)
